Experiment: soluble on expression in E. coli; label from the status in PepcDB or PDB records

Sequence | soluble on expression in E. coli
MSLEDYSVVNRFESHGGGWGYSAHSVEAIRFSADTDILLGGLGLFGGRGEYTAKIKLFELGPDGGDHETDGDLLAETDVLAYDCAAREKYAMMFDEPVLLQAGWWYVAWARVSGPSSDCGSHGQASITTDDGVIFQFKSSKKSNNGTDVNAGQIPQLLYRLPTSDGSTSKGKQQTSEPVHILKRSFARTVSVECFESLLSILHWSWTTLVLGVEELRGLKGFQFTATLLDLERLRFVGTCCLRLLRVYTCEIYPVSATGKAVVEETSKLAECIGKTRTLLRKILSEGVDHCMVKLDNDPQGYLSQPLRLLEAVLQECHNTFTACFHSFYPTPALQWACLCDLLNCLDQEANFKTSSSRLLAAVMSALCHTSVKLTSLFPIAYDGEVLLRSIVKQVSTENDSTLVHRFPLLVGHMEKLSQSEENISGMTSFREVLEKMLVIVVLPVRNSLRRESELFSSHLVSNTCGLLASIVSELTASALGSEVDGLNSLHSVKASANRFTKTSQGRSWNTGNGSPDAICFAVDKPGIVVVGFAVYGGGGIHEYELEVLVDDSEHAGDSTHSHRWTSLELVKGTYTTDDSPSDIAEIRLDKVVPLKENVKYAVRLRNYGSRTANGDGGMTTVQCPDGVTFTFSTCSLSSNGTNQTRGQIPQILYYRSEEGHHHHHH | not soluble
MSLEEWEKHMQNFIPDMLVTFPLAPRSDEYFYEHIEANDGAVHLRGGFFVGGDEGSASVDFSITDPDGDIIYKKSKSEGLFYFTAKKKGTYSFIVSNHQWLESRMVTFAIGRGNETALMPKHVQTAGEMADTLQNQLRDIQLLLLQQEKENGSSSSVSEEKADATASAASAGGLTDREMKQVIYGACRKVDARNATEIPSCRGIPLTEVHRHWVIEEKERIARMGGTIENGRVNGSLEVTRSFGDISLKRYGVSCVPTVKKFTLDPALDEFVLMGCDGFWNCWTASEALNLASEAWEKEIRSSKVHSRPVDPQNVSKQLVEHVLIDKKSQDNITVLLLKISRKEGHHHHHH | soluble
MSLEFLIYSLPEEVLREEMLGNFSVALKLIDDFLKKDLPLLQRERLIYEKERIERLLEDYPFTEKEAMEKMREMFEGFSEGEFQYLMNEGVLDYIVVEGEKRFERRFFHNLAFVRSEYRERLRKDERSEKARRILHERLERLIKGEDPKRYRIRARITLKLKETSSKHRVWLPFPKESLQIESVKLLRTSHKSYYISPNDVPQRTIYFEGEDSTFFVEFEYIVREWVNHVDPERVSEKVAGFEEFLKEEPPHIVFTPKLRWLTQTVVGSEVNPYLKAKRIYDWITLNVRYSYVKPYALYENITDFVVNNLKGDCGFQALLFITMCRIAGVPARWQSGWYINPIFGSPHDWALFYVEPYGWLPADLSFGGARRDNESFRSFYFGNLDGFRMVANDGFMKDFDPKTRFVRSDPTDNQVGEAESEEKRLPFESTIEVISFEEVEGGSHHHHHH | soluble
MSLEFYIADFKQIKEGKVTDIYFERTLKTLEYLGIKDAKVRMEVHSYGLPKGYEWALFTGLEEVLHLLEGVPVNVYAMPEGTLFKEIEPVMIIEGNYLDFGIYETAFLGILRHYSSISTKAARLKFLAMDKTLFFFGLRSLHPALAPMADRAAYIGGMDGVSGAMSKEYLGVDPSGTMPHALMLIVGDNVKAWKAFDEAMGSEVPRITLVDTFEDERTEALKAATLLGKKLYGIRLDTPSSRRGNFRKIIQEVKWTLKIHGYDHVKIFASGGIDEDDIINLRDIVDGFGIGTSIAFPPSVDFSADIVEKFVDGKWVPFTKRGKWPGAKQVYRCGKLNDVITLMDQEHPSSDCKPLLQKYMENGKIIKPLPSPKEIREYVIKQLTELQSSEGHHHHHH | soluble
MSLEGEKRVELHLHSPMSQMDAVTGIGKLVEQAKKWGHEAIALTDHAVVQSFPDAYSAAKKHGIKMIYGMEANLVDDGVPIAYNAAHRLLEEETYVVFDVETTGLSAVYDTIIELAAVKVKGGEIIDKFEAFANPHRPLSATIIELTGITDDMLQDAPDVVDVIRDFREWIGDDILVAHNASFDMGFLNVAYKKLLEVEKAKNPVIDTLELGRFLYPEFKNHRLNTLCKKFDIELTQHHRAIYDTEATAYLLLKMLKDAAEKGIQYHDELNENMGQSNAYQRSRPYHATLLAVNSTGLKNLFKLVSLSHIHYFYRVPRIPRSQLEKYREGLLIGSACDRGEVFEGMMQKSPEEVEDIASFYDYLEVQPPEVYRHLLELELVRDEKALKEIIANITKLGEKLNKPVVATGNVHYLNDEGHHHHHH | soluble
MSLEIGILDIKGSLPLFEDFGNLPTKIITENNYKEIKDLDALIIPGGSLIESKSLNDDLKKEIINFNGYIIGICSGFQILAKKIDIGRKSSVPIIKEGLGLLDVEFSPLVCTDRVEFEVKKSIFGEGKGEGFHCHTYGNIEVVDKETKILTVSKVKKLNYKLGAEKEIISGAFKGKVFGTMVHNFLDNEFVRDNFLKHLGVTEDEKEEIFEKNKIIKDELKKRALKYRLNPKLLKENNKKDVNKKRGIILLATSSNSGKTFLTTALSSKLNGRVFVAKIGGDVRDIVPALYLLREKMTKYNSIKIGERGWVDVSKFLDYIKKSDYDYIIVEGVMGAFTAALKNISSYQIAKKLGFPVYIVSACNISGIEGAFVEAMAYYSLLKDIGIKVEGVILNKVYDWNSFNKLKSLAEKHNIKLYGVGKIANESRGLIPEVEIDYESFCRNAFNVDLEIEIPEVEINNHIKDEEDNFLERLDNWMENINEGHHHHHH | soluble
MSLEISASIIDISENALEQLGVDWRLHNSRFDLQTGNGTNTMLNNPGSLDSVATTAGAAAAIAATPAGGVLSAVIGGGSRYLMARISALQQTDQARITANPKVATLDNTEAVMDNRQNFYVPVAGYQSADLYAISAGVSLRVLPMVVMDGGTVRIRMNVHIEDGQITSQQVGNLPITSQSEIDTQALINEGDSLLIAGYSVEQQSKSVDAVPGLSKIPLVGALFRTDQTTGKRFQRMFLVTPRVITEGHHHHHH | not soluble
MSLEKHKVDFYNIPIVDYLLSIGEPLESVGHNYYQHKHHDSLKINQRKNYFVWNSRSSEKNSRGGVVQYMQIMHNLSLQETLSKLSEDLDGKVLPAIPKKSYPKKFNYKVKEAIVPLETQRYLVAKRKIPNKIVRLFFSYDLISQNENNEVIFKWFKGDKVMGFSKQGTIPLTDEEKEKYHTKRDFFKYVAPTTEADTMWGFNYLSGEPKHIFFFESEIDLMSYYSIFEEELNETGNFWLISINGVAIEKVYSFFRYGIENLNLKETCQSLHVCFDNDIAGKQACNKLQHLEFKNIPFQNDLPKEFKDWNEVLQNKEGHHHHHH | soluble
MSLEKHRMLVIDDDPIAHQIMQMLFEAELRLTCKVTGEEGLSAVEEEQPEIVLLDIEMEGMDGYEACRRIRQLNLPSQPYIIFVSAHSDPVKRLAAYSVGGEDFVSKPLQPQELTRKVEQALRYRREGHHHHHH | not soluble
MSLELIPCGWRRYVEFRMTIVNHISPIHSVDKKGWRWFDENTKNWGFKDMIPAVILNNVNVGFLLNGEITIIAEVEVHEFIDTLNASQVEELSDDSSEDLQNKDNVTIEVNGFQVLDSQVDQVNAIFEKHPDLISNFSLKNQHIRNAYMHALLDLTKTLSKSTKELTVEDMNEADNTITDLIKAGLNLDWLRQKFDQALEKQIAYDTRIGELEKQVKKRKLAVTELEADLEKEKAAASASLMLFDEGHHHHHH | not soluble
MSLELKVHETILEVNLGAMVANLNHYRSMLKPETKMVCMVKASAYGAGSYEIAKTLQEHHADYLAVAVADEGSDLRKAGITASIIIMDPELTAFKTMFDYKLEPEVYNFHLLDALIKAAEKEGITNFPIHVKLDTGMHRLGFEEKDIPQLIRRLKNQNALIPRSVFSHFVGSDSAQFDAFTRQQIERYEKMSKELQDAFPHKILRHICNTAGIERFPGAQFDMVRLGIGLYGISPIDNSIINNVSTLKTTILQIRDVAEEDTVGYSRKGHLIRPSRIAAIPIGYADGLNRHLGCGHGYCLVNGKKAPYVGNICMDVCMIDVTDIDCREGDQAIIFGDELPITALSDALETIPYEVLTGISTRVKRVYYQDEGHHHHHH | soluble
MSLELTISELKENFWGEYEYLDGGYMAARLAVLEHLEQIKRQSGIIIIREITEEYFAPVGNWHIRETVRNAMKNRLGKYDNLNLAISEVNKKLKAKINLFELRTINSLINQKSIYDFFKEGHHHHHH | not soluble
MSLEMGMNWTHTPLALSALMFAMAAQATPNQATDAVAPEQATGFEHKSLVKAKNWMVTAANPLASEAGASILRQGGNAIDAMVTTQLMLGLVEPQSSGIGGGSFLVYWDAKKKALTTFDGRETAPLNATPELFLDSTGQPMKFYDAVVGGRSVGTPGTVKLLWETHRQYGKLEWARLIEPVAKLAEQGFEVSPRLAALIAEDKERLGRFPATKAYFFDAQGEPLTAGTLLKNPDYAATLRAIAQQGASAFYQGDIAKDIIATVQNAPGNPGVLAQQDFDTYQVKQRAPVCAAYQSYQVCGMGLPSSGGLTVGQILALTEQYDLKGWGAQDVKSWQVLGDASQLAFADRGLYMADQDYVPVPTQGLLDKTYLAERAKLIQPGKALTSAPAGNPPWHHAQLRSPDQSIELPSTSHFNIVDREGNVVSFTTSIENAFGSRLLVRGFLLNNELTDFSFATQSEGRPIANRLEPGKRPRSSMAPTIVLQDNQPYLAIGSPGGSRIIGYVAQAIVAHTQWGMNIQAAINQPHVLNRFGEIELEQGTSAEQFKPALESLGAKVGIKELNSGLHAIRITAQGLEGAADPRREGVAIGEGHHHHHH | not soluble
MSLENIIARRYAKAIASRADINDFYQNLCILNSAFVLPKFKNIIESNEIKKERKMEFLDSFFDIKNSSFQNFLRLLIENSRLECIPQIVKELERQKAFKENIFVGIVYSKEKLSQENLKDLEVKLNKKFDANIKLNNKISQDDSVKIELEELGYELSFSMKALQNKLNEYILKIEGHHHHHH | not soluble
MSLENKFARTVLGDIPVEKLGITDCHDHFIKNGGPEVEEHIDFLMLNVDASIKEFKEFIDRGGSTIVTMDPPNVGRDVLKTLEIANAVKNLGGNVIMSTGFHKAKFYDKYSSWLAVVPTEEIVKMCVAEIEEGMDEYNYNGPVVKRSKAKAGIIKAGTGYGAIDRLELKALEVAARTSILTGCPILVHTQLGTMALEVAKHLIGFGANPDKIQISHLNKNPDKYYYEKVIKETGVTLCFDGPDRVKYYPDSLLAENIKYLVDKGLQKHITLSLDAGRILYQRNYGLTKGKQTFGLAYLFDRFLPLLKQVGVSKEAIFDILVNNPKRVLAFDEKRNFDPLKVSKEVLELKKELNLNEGHHHHHH | soluble
MSLENLNIENWPVDRLHHSEHATRRNEDAIPRMVDALRMFGFRIPLLVTGAGEVVDGHLRLKAALVMGMASVPVIVVDDMTPTQVRTFRLLINRSATWAEWDDEALRVELASLRDYGVDVTMTGFADAELDAFLQGVSLAGESDPDMVPPLPETPTSRPGDVWNMGGHRLLCGDSTSVEDVVRLMAGEQADMLWTDPPYNVDYSGKAGKIRNDKMSPEDFDAFLLRLLSRSYEALADGAAAYVAHSEAGGGTAFRKAFAHAGYKLASCLIWRKHQLVLGRGDYHWQHEPILYGWKPTGKHRWYGNRKHTTLLEHFAGQTVLPAGEGVWQVATGDAVLLIRGQDVTVEEVSTSILAVAKPARSELHPTMKPVALVERMVANSSPRGGLVLDPCGGSGTTLIACERMGRRCNTMELDPRFADVIVRRWEEVTGKTAVLEGGASFADVPLAREVAHEGHHHHHH | soluble
MSLENSQELTPWQRLTIARMLERPTSLEYIDLIFDSFMEFHGDRAFGDDAAIVGGVAEFNGMPVTVIGQQKGRNTNENIKRNFGMPSPEGYRKALRLMKQAEKFNRPLICFVDTSGAYCGVEAEQRGQGEAIAKNLISMANLKIPVISVVIGEGGSGGALAMAVADEVWMLENSVYSLLSPEGFASILWKDSSRAKEAAEVMKITADDLKGYGIIDKVIKEPDGGAQNDITMVANALRENLKKAIEGLSSTGINELLDNRYNKFRQIGKFIENEDNEGHHHHHH | soluble
